This data set concerns the molecule itself. Briefly: AFM imaging on mica (self-association, not fibrils). How it is done:
Pieces of 8.0 mm×8.0 mm×0.5 mm muscovite mica were cut and mounted on standard microscope slides using composite epoxy glue (5 Minute Epoxy, ITW Performance Polymers and Fluids, FL. USA). Before protein deposition, the top layer(s) of mica was peeled mechanically to expose fresh (0001) surfaces. For SBAFP-m1 or wild type WT SBAFP, 20 μl of sample in Tris buffer (100 mM, pH8.0) were deposited on the freshly exposed mica(0001) surfaces. After 5 min incubation, the surfaces were washed three times with 200 μl Tris buffer (100 mM, pH 8.0) to remove weakly bound proteins and fibrils. The samples were immediately imaged in the Tris buffer. Sample preparation for RGAFP-m1 or WT RGAFP followed similar protocols except for the surface coating and imaging medium. The freshly cleaved mica(0001) surfaces were coated with poly-L-Lysine, by dropping 80 μl 0.1% (w/v) poly-L-Lysine (Sigma P8920, MW 150-300 kDa) onto the surface, incubating for 5 min, then washing with MilliQ water. The surfaces were dried with clean air before protein deposition. The samples were imaged under ambient conditions.
The formation of fibers by SBAFP-m1 was analyzed after 48 h and 3 weeks of incubation at 37° C. […] The expansion (FIG. 10A inset) allows an accurate height determination of 1.5-3 nm, but predominantly between 2.5 and 3 nm. […]

B1: WT SBAFP (other)
chain: DGTCVNTNSQITANSQCVKSTATNCYIDNSQLVDTSICTRSQYSDANVKKSVTTDCNIDKSQVYLTTCTGSQYNGIYIRSSTTTGTSISGPGCSISTCTITRGVATPAAACKISGCSLSAM
notes: Gene in pET20b from the Davies lab, expressed in E. coli; also called wild type spruce budworm antifreeze protein; isozyme 501
As for B1, the binding result is recorded as “binds”.

(Values after patent US20170058007A1 (University of California, published 2017).)
